B1: pgEG-SX3 (VHH, not shown: small tags and cut ends)
VHH: QVQLVESGGGLVQAGGSLRLSCVVYGSIFASTTMGWYRQAPGKQRELVATVYQSGTSVYADSVKGRFTASRDNAKKTVYLQMNSLKPEDTAVYYCHPRATDYWGRGTQVTVSS
B2: pgEG-SX40 (VHH, not shown: small tags and cut ends)
VHH: QVQLVESGGGLVQAGGSLRLSCTGSGIRFSFYTLGWYRQAPGKQRELVAEIYSSDNAKYEDSVKGRFAISRDNAKNSVSLQMNSLKPEDTAVYYCNVRATDYWGPGTQVTVSS
B3: pgEG-SX57 (VHH, not shown: small tags and cut ends)
VHH: QVQLVESGGGLVQAGGSLRLSCAGARSIFSIKPMTWYRQAPGKERELVAWFTSGDSPNYADSVKGRFTISRDSAKNTVYLQMNNLKPEDTAVYYCNAVPPLGRWGQGTLVTVSS
B4: pgEG-SX6 (VHH, not shown: small tags and cut ends)
VHH: QVQLVESGGGTVQAGGSLRLSCVASGMREDIFDMGWYRQAPGLQRELVATITSGGSTDYADSVKGRFTISRDNTENTLNLQMNMLKPEDTAVYYCNALYFPPSGGRSSEFWGQGTLVTVSS
B5: pgEG-SX22 (VHH, not shown: small tags and cut ends)
VHH: QVQLVESGGGLVQAGGSLRVSCAVSGGALSAYAMAWFRQAPGKEREFVAGLNWGGDETYYADSAKGRFTISKDNAKNTVSLQMNSLEPEDTAVYYCGGRPGPLLSRATGYKYWGQGTQVTVSS
B6: pgEG5 (VHH, not shown: small tags and cut ends)
VHH: QVQLVESGGGLVQPGGSLRLSCTASHNIFSDNAMAWSRQAPGAQRELVARIATGGNTYYPDSVKGRFTISRDNAKNTVYLQMNNLTPDDTAVYYCYAERWTGLEYSRTYWGQGTQVTVSS
B7: 4-1BB-56 (VHH, not shown: small tags and cut ends)
VHH: QVQLVESGGGLVQTGGSLRLSCAASGRISTIDTMFWYRQTPGKERDWVAFIPKDGLPTYVDSVKGRFTVSRDNARNTVYLQMNGLKPEDTAVYYCAVDVQEDRMRTYWGQGTQVTVSS
B8: Humanized MSA4-1 (VHH)
VHH: EVQLVESGGGLVQPGGSLRLSCAASGRTDSAYRMGWFRQAPGKEREFVSAINWSDGRTVYLDSVKGRFTISRDNAKNTLYLQMNSLRAEDTAVYYCAADPDSRLYYTVPQNYDYWGQGTQVTVSS
notes: Humanization of MSA4 based on human germline IGHV3-23*04; also called hMSA4-1; not shown: His tag (BLI used HIS tagged MSA VHHs)

Biological target: T1, EGFR Fc (human, UniProt P00533 25-645)
T1 construct: also called EGFR-hFc; recombinant human EGFR-Fc
Assay: ELISA, EGFR Fc coated
Method: (§1) After four rounds of washing with PBST, the plate was incubated with detecting antibody anti-his-HRP (1:4000 dilution) 100 μl per well for one hour with shaking at 60 rpm. The plate was developed with 100 μL of TMB per well in the dark and then stopped by 50 μL of stop solution per well. […] Data was analyzed using GraphPad Prisma 9.1.

Binder | EC50
B1 | 382 pM
B2 | 769 pM
B3 | 22 pM
B4 | 120 pM
B5 | 7.2 pM
B6 | 426 pM

Biological target: T2, EGFR (recombinant human, BLI antigen) (human, UniProt P00533 25-645)
T2 construct: also called rh-EGFR; human EGFR
Assay: BLI (Octet) as in Example 1

Binder | Kd | koff | kon
B1 | 602 pM |  | 
B2 | 1130 pM |  | 
B3 | 1870 pM |  | 
B4 | 798 pM |  | 
B5 | 464 pM |  | 
B6 | 10800 pM | 0.00134 s⁻¹ | 124000 M⁻¹ s⁻¹

Biological target: T1, EGFR Fc
Assay: ELISA, EGFR Fc coated, VHH at 2 nM
Method: as §1

Binder | OD450
B1 | 0.843
B2 | 0.626
B3 | 2.79
B4 | 1.83
B5 | 1.88
B6 | 2.23

Biological target: T3, 4-1BB Fc (human, UniProt Q07011 24-183)
T3 construct: also called rh-41BB; 41BB-hFc
Assay: ELISA, 4-1BB Fc coated, VHH at 5 nM
Method: as §1

T3 sequence (Q07011 24-183): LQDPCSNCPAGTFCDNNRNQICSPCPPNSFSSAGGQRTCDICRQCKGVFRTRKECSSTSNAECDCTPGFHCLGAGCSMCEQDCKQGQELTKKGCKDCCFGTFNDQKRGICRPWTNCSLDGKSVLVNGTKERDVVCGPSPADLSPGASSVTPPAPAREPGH

Binder | OD450
B7 | 2.89

Biological target: T1, EGFR Fc
Assay: ELISA, EGFR Fc coated, VHH at 10 nM
Method: as §1

Binder | OD450
B1 | 0.994
B2 | 0.715
B3 | 2.54
B4 | 1
B5 | 1.94
B6 | 2.35

Biological target: T1, EGFR Fc
Assay: ELISA, EGFR Fc coated, VHH at 50 nM
Method: as §1

Binder | OD450
B1 | 1.21
B2 | 0.786
B3 | 2.46
B4 | 1.15
B5 | 1.78
B6 | 2.33

Biological target: T3, 4-1BB Fc
Assay: ELISA, 4-1BB Fc coated, VHH at 50 nM
Method: as §1

Binder | OD450
B7 | 3.08

Biological target: T1, EGFR Fc
Assay: ELISA, EGFR Fc coated, VHH at 0.4 nM
Method: as §1

Binder | OD450
B1 | 0.762
B2 | 0.461
B3 | 2.67
B4 | 1.16
B5 | 1.72
B6 | 1.2

Biological target: T1, EGFR Fc
Assay: ELISA, EGFR Fc coated, VHH at 500 nM
Method: as §1

Binder | OD450
B1 | 1.47
B2 | 0.963
B3 | 2.61
B4 | 1.37
B5 | 2.16
B6 | 2.52

Biological target: T3, 4-1BB Fc
Assay: ELISA, 4-1BB Fc coated, VHH at 0.5 nM
Method: as §1

Binder | OD450
B7 | 1.69

Biological target: T3, 4-1BB Fc
Assay: ELISA, 4-1BB Fc coated, VHH at 500 nM
Method: as §1

Binder | OD450
B7 | 2.7

Biological target: T1, EGFR Fc
Assay: ELISA, EGFR Fc coated, VHH at 0.08 nM
Method: as §1

Binder | OD450
B1 | 0.373
B2 | 0.25
B3 | 2.37
B4 | 0.496
B5 | 1.43
B6 | 0.34

Biological target: T3, 4-1BB Fc
Assay: ELISA, 4-1BB Fc coated, VHH at 0.05 nM
Method: as §1

Binder | OD450
B7 | 0.397

Biological target: T1, EGFR Fc
Assay: ELISA, EGFR Fc coated, VHH at 0.016 nM
Method: as §1

Binder | OD450
B1 | 0.134
B2 | 0.144
B3 | 1.33
B4 | 0.139
B5 | 0.871
B6 | 0.147

Biological target: T3, 4-1BB Fc
Assay: ELISA, 4-1BB Fc coated, VHH at 0.005 nM
Method: as §1

Binder | OD450
B7 | 0.203

Biological target: T1, EGFR Fc
Assay: ELISA, EGFR Fc coated, VHH at 0.0032 nM
Method: as §1

Binder | OD450
B1 | 0.086
B2 | 0.121
B3 | 0.648
B4 | 0.082
B5 | 0.304
B6 | 0.119

Biological target: T3, 4-1BB Fc
Assay: ELISA, 4-1BB Fc coated, VHH at 0.0005 nM
Method: as §1

Binder | OD450
B7 | 0.181

Biological target: T3, 4-1BB Fc
Assay: ELISA, 4-1BB Fc coated, VHH at 0.00005 nM
Method: as §1

Binder | OD450
B7 | 0.129

Biological target: T4, Human 41BB antigen (BLI) (human, UniProt Q07011 24-183)
T4 construct: also called 41BB protein
Assay: BLI, VHH-His on anti-His tips, human 41BB in solution;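 also: association tracked for 200 s, after which dissociation was followed in 1×PBS free of 41BB protein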
Method: Tips were loaded using 20 μg/ml of anti-41BB VHH. Loading proceeded for 300 sec resulting in capture levels of between 1.8 and 2 nm. […] Association was initiated and monitored for 200 sec, after which tips were transferred to 1×PBS buffer without 41BB protein, in order to monitor dissociation.

T4 sequence (Q07011 24-183 limits assumed): as the sequence (Q07011 24-183) above

Binder | Kd | koff | kon
B7 | 781 pM | 0.000552 s⁻¹ | 707000 M⁻¹ s⁻¹

Biological target: T1, EGFR Fc
Assay: blocking ELISA, EGFR-hFc + VHH at 0 nM on coated EGF-mFc
Method: (§2) After incubation at 4° C. overnight, the plate was washed four times of PBST and blocked with 200 μl per well of 2% BSA for one hour at room temperature. […] The plate was washed twice with PBST, and the pre-mixed samples were added to the 96-well plate shaking at 60 rpm for one hour at room temperature. After four washes of PBST, the plate was incubated with detecting antibody anti-his-HRP (1:4000 dilution) 100 μl per well for one hour with shaking at 60 rpm. The plate was washed with four times of PBST and added 100 μl per well of substrate TMB followed by 50 μl of stop solution.

Binder | OD450
B1 | 1.06
B2 | 1.14
B3 | 1.11
B4 | 1.04
B5 | 1.07
B6 | 1.2

Biological target: T1, EGFR Fc
Assay: blocking ELISA, EGFR-hFc + VHH at 8 nM on coated EGF-mFc
Method: as §2

Binder | OD450
B1 | 0.562
B2 | 0.633
B3 | 0.649
B4 | 0.757
B5 | 0.736
B6 | 1.07

Biological target: T1, EGFR Fc
Assay: blocking ELISA, EGFR-hFc + VHH at 40 nM on coated EGF-mFc
Method: as §2

Binder | OD450
B1 | 0.482
B2 | 0.414
B3 | 0.433
B4 | 0.606
B5 | 0.801
B6 | 1.11

Biological target: T1, EGFR Fc
Assay: blocking ELISA, EGFR-hFc + VHH at 1.6 nM on coated EGF-mFc
Method: as §2

Binder | OD450
B1 | 0.723
B2 | 0.922
B3 | 0.919
B4 | 0.928
B5 | 0.864
B6 | 1.18

Biological target: T1, EGFR Fc
Assay: blocking ELISA, EGFR-hFc + VHH at 200 nM on coated EGF-mFc
Method: as §2

Binder | OD450
B1 | 0.382
B2 | 0.147
B3 | 0.158
B4 | 0.668
B5 | 0.903
B6 | 1.2

Biological target: T1, EGFR Fc
Assay: blocking ELISA, EGFR-hFc + VHH at 0.32 nM on coated EGF-mFc
Method: as §2

Binder | OD450
B1 | 0.806
B2 | 1.03
B3 | 1.08
B4 | 1.07
B5 | 0.955
B6 | 1.16

Biological target: T1, EGFR Fc
Assay: blocking ELISA, EGFR-hFc + VHH at 1000 nM on coated EGF-mFc
Method: as §2

Binder | OD450
B1 | 0.336
B2 | 0.151
B3 | 0.15
B4 | 0.646
B5 | 0.96
B6 | 1.22

Biological target: T1, EGFR Fc
Assay: blocking ELISA, EGFR-hFc + VHH at 0.064 nM on coated EGF-mFc
Method: as §2

Binder | OD450
B1 | 0.979
B2 | 1.06
B3 | 1.14
B4 | 0.956
B5 | 0.983
B6 | 1.15

Biological target: T5, human serum albumin (human, UniProt P02768 25-609)
T5 construct: also called HSA
Assay: BLI (Gator), His-tagged VHH on anti-His sensor, HSA 100 nM in solution
Method: (§3) Kinetic binding analysis of MSA VHHs were performed with Gator Prime system equipped with analyze software. […] The experiments were done at 30° C. Prior to analysis, sensors were socked in Q buffer for 600 sec with shaking at 1000 rpm, and then 2 μM of HIS tagged MSA VHHs were loaded to Anti-His sensors with shaking at 400 rpm for 120 sec. Loaded sensors were transferred into Q buffer for 60 sec. Association of HSA or MSA at 100 nM was initiated and monitored for 120-180 sec with shaking at 1000 rpm, and finally dissociation in Q buffer for 120-180 sec with 1000 rpm shaking. Software V2.0 (Gator Bio) was used for data analysis. The on-rate (Kₒₙ) and off-rate (Kd) were determined by fitting of the association and dissociation phases of each sample. The mathematical model used assumes a 1:1 stoichiometry, fitting only one analyte in solution binding to one binding site on the surface. The equilibrium dissociation constant (KD), a measure for affinity, was then calculated as the ratio of Kd and Kₒₙ.

Binder | Kd | koff | kon
B8 | 5380 pM | 0.000545 s⁻¹ | 101000 M⁻¹ s⁻¹

Biological target: T2, EGFR (recombinant human, BLI antigen)
Assay: BLI (Octet) as in Example 1; printed under the head Kdis(1/s), read as kon

Binder | kon
B1 | 457000 M⁻¹ s⁻¹
B2 | 358000 M⁻¹ s⁻¹
B3 | 381000 M⁻¹ s⁻¹
B4 | 500000 M⁻¹ s⁻¹
B5 | 602000 M⁻¹ s⁻¹

Biological target: T2, EGFR (recombinant human, BLI antigen)
Assay: BLI (Octet) as in Example 1; printed under the head Kon(1/Ms), read as koff

Binder | koff
B1 | 0.000275 s⁻¹
B2 | 0.000406 s⁻¹
B3 | 0.000715 s⁻¹
B4 | 0.000399 s⁻¹
B5 | 0.00028 s⁻¹

Biological target: T6, murine serum albumin (murine, UniProt P07724 25-608)
T6 construct: As antigen 'MSA' means murine serum albumin; the VHHs also carry the label MSA; also called MSA
Assay: BLI (Gator), His-tagged VHH on anti-His sensor, murine serum albumin 100 nM in solution
Method: as §3

Binder | Kd | koff | kon
B8 | 5580 pM | 0.000678 s⁻¹ | 121000 M⁻¹ s⁻¹

Reference: US20250376535A1 (BEIJING STARMAB BIOMED TECHNOLOGY, published 2025)
